Target: T1, interaction between AKAP18δ and RIIα (Homo sapiens, UniProt P13861)
T1 construct: expressed in transfected cells; host or cells: HEK293
Assay: FRET measurement of AKAP18δ-CFP / RIIα-YFP interaction in co-transfected HEK293 cells
Type: cell-based
Conditions: 100 μM
Procedure: The interaction of the expressed fusion proteins AKAP18δ-CFP and RIIα-YFP was measured in the HEK293 cells using the fluorescence resonance energy transfer (FRET) technology (schematic diagram in FIG. 3). The FRET signals result from an energy transfer from CFP to YFP, which is only possible when the two proteins are in close proximity to each other (<10 nm). Such close proximity of CFP and YFP is achieved only when AKAP186 directly binds the RIIα subunit. In this event, a FRET can be detected. […] A continuous decrease of the FRET signal during measurement indicates inhibition of the interaction between AKAP18δ and RIIα.
HEK293 cells (GBF, Brunswick) were cultured on polylysine-coated 30 mm cover glasses with 10% fetal calf serum (FCS) in Dulbecco's Minimal Eagle medium (DMEM) until a confluence of 40-60% was reached. […]
HEK293 cells were transiently co-transfected with the plasmids encoding RIIα-YFP and AKAP18δ-CFP. […] Fluorescence was excited at a wavelength of 425 nm for CFP and 488 nm for YFP. The emitted fluorescence was measured at a wavelength of 480/30 nm for CFP and 535/26 nm for YFP. The FRET of CFP to YFP was determined by excitation of CFP at a wavelength of 425 nm and measurement of the emission of YFP at a wavelength of 535/26 nm. Non-specific background fluorescence was determined in a region with no cells and subtracted. […]

T1 sequence (P13861 whole entry): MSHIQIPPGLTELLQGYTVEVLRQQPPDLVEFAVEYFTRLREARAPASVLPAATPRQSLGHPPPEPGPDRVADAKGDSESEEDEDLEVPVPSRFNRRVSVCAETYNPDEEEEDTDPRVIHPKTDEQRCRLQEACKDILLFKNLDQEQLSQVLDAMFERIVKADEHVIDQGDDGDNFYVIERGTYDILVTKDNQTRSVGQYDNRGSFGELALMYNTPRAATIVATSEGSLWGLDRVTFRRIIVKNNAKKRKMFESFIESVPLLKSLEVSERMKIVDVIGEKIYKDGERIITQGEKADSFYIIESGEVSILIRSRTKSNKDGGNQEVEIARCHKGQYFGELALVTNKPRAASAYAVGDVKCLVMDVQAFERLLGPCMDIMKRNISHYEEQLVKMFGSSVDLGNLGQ

- mean value of the 535/480 ratio after addition of peptide (HEK293 cells, ratio >0.6 taken as positive FRET signal): about 0.35
- decrease of the 535/480 nm ratio (FRET signal) (within 80 min, HEK293 cells co-expressing AKAP18δ-CFP and RIIα-YFP, ratio before addition about 1.3): more than 50%
Substance: S-Ht31: membrane-permeable peptide; sequence of the RII binding domain of AKAP Ht31, coupled to a stearate residue on the N terminus

From patent US7863432B2, “Nucleic acid molecules encoding AKAP18 delta, a splice variant of a protein kinase A anchor protein” (Forschungsverbund Berlin e.V., priority 2002, dated 2011)
